± gives the standard deviation of the averaged measurements.
System: ATP
Assay: switch fluorescence ratio, 500 uM ATP over buffer (Cy3 cluster intensity, sum of 5 cycles each) (fold (ratio)); higher = stronger signal-on switching upon ATP binding; sequences stand for … in TCGTCGGCAGCGTCAGATGTGTATAAGAGACAGTTTTTTTTTTTTTTTTTTTTTTTTT…TC
Details: aptamer strand: ATP DNA aptamer (quencher-CACCTGGGGGAGTATTGCGGAGGAAGG + anchor), 100 nM annealed; ATP concentration: 500 uM
Summary of the method: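 Switching-strand clusters labelled with Cy3 on a modified Illumina MiSeq flow-cell were annealed to 100 nM quencher-labelled ATP aptamer, imaged in selection buffer, and re-imaged after 15 min with 500 uM ATP at 22 °C. This was done over five cycles with NaOH stripping and re-annealing in between. The fluorescence ratio is summed target-cycle over summed buffer-cycle Cy3 intensity per cluster, averaged per switch-domain sequence, excluding clusters outside 100-1000 RFU.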
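Also: ATP exposure 15 min at 22 °C before imaging.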

| Sequence | switch fluorescence ratio |
| --- | --- |
| GGCAGATGAA | 1.03 ± 0.011 |
| GGCAGATTCC | 1.05 ± 0.019 |
| GGCAGATTTT | 0.9986 ± 0.006 |
| GGCAGCAAGT | 1.16 ± 0.013 |
| GGCAGGTGTT | 1.73 ± 0.85 |
| GGCAGTATTT | 1.0371 ± 0.00098 |
| GGCATAATTT | 1.016 ± 0.008 |
| GGCATCAGGC | 1.03 ± 0.042 |
| GGCATCATGT | 1.012 ± 0.0039 |
| GGCATGGTTT | 1.01 ± 0.014 |
| GGCATGTTAG | 0.9847 ± 0.009 |
| GGCATTACTG | 1.06 ± 0.025 |
| GGCATTTTTC | 0.999 ± 0.021 |
| GGCCAACGTA | 0.997 ± 0.021 |
| GGCCAAGGGT | 1.03 ± 0.0039 |
| GGCCACAGCA | 1.07 ± 0.016 |
| GGCCAGGGGA | 1.04 ± 0.049 |
| GGCCCGGAGC | 1.24 ± 0.013 |
| GGCCCTTTGG | 0.984 ± 0.0082 |
| GGCCGAGGAG | 0.998 ± 0.012 |
| GGCCGAGTTA | 1.013 ± 0.0036 |
| GGCCGCGGCC | 1.0014 ± 0.00091 |
| GGCCGGAGGT | 1 ± 0.011 |
| GGCCGTAATG | 1.09 ± 0.019 |
| GGCCGTATGT | 1.01 ± 0.011 |

| Sequence | switch fluorescence ratio |
| --- | --- |
| GGCCGTCGGA | 1.06 ± 0.091 |
| GGCCGTGAGT | 0.996 ± 0.018 |
| GGCCTACCAT | 0.9979 ± 0.0091 |
| GGCCTAGAGG | 1.01 ± 0.021 |
| GGCCTATTGG | 0.998 ± 0.023 |
| GGCCTGAGGG | 0.9854 ± 0.0032 |
| GGCCTGCTCG | 0.988 ± 0.029 |
| GGCCTGTTTT | 1.09 ± 0.21 |
| GGCCTTAAGT | 0.9912 ± 0.0025 |
| GGCGAAAAGG | 0.993 ± 0.047 |
| GGCGAAAATA | 1.007 ± 0.0079 |
| GGCGACACGT | 1.03 ± 0.023 |
| GGCGACGGAG | 0.97 ± 0.0076 |
| GGCGATTGGG | 0.99 ± 0.026 |
| GGCGCAGTTC | 1.37 ± 0.077 |
| GGCGCGCGGG | 0.991 ± 0.00073 |
| GGCGCGCGGT | 0.98 ± 0.0095 |
| GGCGCGGCGG | 1.02 ± 0.068 |
| GGCGCGTCCA | 0.994 ± 0.013 |
| GGCGCTCAGT | 1.02 ± 0.02 |
| GGCGCTTCGG | 0.967 ± 0.05 |
| GGCGGAACGT | 1 ± 0.023 |
| GGCGGACGGA | 1.07 ± 0.089 |
| GGCGGGACCG | 0.959 ± 0.03 |
| GGCGGGATAT | 1.01 ± 0.032 |

| Sequence | switch fluorescence ratio |
| --- | --- |
| GGCGGGATGC | 1 ± 0.031 |
| GGCGGGGGGG | 1.03 ± 0.048 |
| GGCGGGGGGT | 1.01 ± 0.024 |
| GGCGGGTGGG | 1.03 ± 0.089 |
| GGCGGTAAAG | 0.992 ± 0.037 |
| GGCGGTAGAG | 1.012 ± 0.0091 |
| GGCGGTTTGG | 1.002 ± 0.0058 |
| GGCGTATATC | 1.02 ± 0.023 |
| GGCGTATGTG | 0.95983 ± 0.00095 |
| GGCGTCAGGG | 1 ± 0.051 |
| GGCGTCTATC | 1.01 ± 0.0096 |
| GGCGTTCATG | 0.9968 ± 0.0081 |
| GGCTACAGCG | 0.987 ± 0.0032 |
| GGCTAGCCTA | 1.01 ± 0.013 |
| GGCTAGGGGT | 1.57 ± 0.022 |
| GGCTAGTACT | 1.01 ± 0.011 |
| GGCTATCGGG | 1.02 ± 0.046 |
| GGCTATTTAA | 1.002 ± 0.0063 |
| GGCTCAATGG | 1.04 ± 0.031 |
| GGCTCACTAG | 1.01 ± 0.05 |
| GGCTCAGTTT | 0.979 ± 0.026 |
| GGCTCATTGA | 0.984 ± 0.029 |
| GGCTCTGAGG | 0.972 ± 0.02 |
| GGCTGAGGGA | 1.04 ± 0.037 |
| GGCTGAGGGT | 1 ± 0.016 |

| Sequence | switch fluorescence ratio |
| --- | --- |
| GGCTGGGCTT | 0.99 ± 0.04 |
| GGCTGGGGGG | 0.997 ± 0.02 |
| GGCTGGGGTG | 1.04 ± 0.071 |
| GGCTGTAGAC | 1.006 ± 0.0059 |
| GGCTTAATAG | 1.01 ± 0.033 |
| GGCTTAGTTT | 1.01 ± 0.0055 |
| GGCTTATTTT | 1.0031 ± 6.6e-05 |
| GGCTTCTTGA | 0.966 ± 0.017 |
| GGCTTGAACT | 1.05 ± 0.083 |
| GGCTTGCCTC | 1.023 ± 0.0069 |
| GGGAAAGAAT | 0.978 ± 0.011 |
| GGGAAAGGAT | 1.02 ± 0.033 |
| GGGAAAGTTT | 0.996 ± 0.023 |
| GGGAAATATG | 1.01 ± 0.012 |
| GGGAAATGGT | 1.01 ± 0.027 |
| GGGAAATTCG | 1.012 ± 0.0039 |
| GGGAAATTGG | 1 ± 0.031 |
| GGGAACAGGG | 1.003 ± 0.0024 |
| GGGAACCGGG | 1.2 ± 0.33 |
| GGGAACGGTA | 0.9955 ± 0.0076 |
| GGGAACTGGG | 1.04 ± 0.049 |
| GGGAAGAATA | 0.986 ± 0.018 |
| GGGAAGAGGG | 1 ± 0.016 |
| GGGAAGAGTA | 1 ± 0.031 |
| GGGAAGATTC | 1.01 ± 0.04 |
